From patent publication US20230064378A1

Experiments:
[1] = target: human FcγRIIb (CD32b) extracellular domain (human) (UniProt P31994); assay: SPR, antibody captured on Protein A, steady state, 25 °C
[2] = target: human FcγRIIA_131R (CD32a) extracellular domain (human) (UniProt P12318); assay: as above
[3] = target: human FcγRIIA_131H (CD32a) extracellular domain (human) (UniProt P12318); assay: as above
[4] = target: human FcγRIIIA_158F (CD16a) extracellular domain (human) (UniProt P08637); assay: as above
Sequence of human FcγRIIIA_158F (CD16a) extracellular domain (human) (P08637 17-208): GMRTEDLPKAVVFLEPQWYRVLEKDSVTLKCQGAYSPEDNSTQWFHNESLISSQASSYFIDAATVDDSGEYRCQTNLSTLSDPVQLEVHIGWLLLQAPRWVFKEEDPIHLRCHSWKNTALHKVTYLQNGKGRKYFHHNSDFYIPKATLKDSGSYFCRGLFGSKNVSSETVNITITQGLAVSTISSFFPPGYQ

[5] = target: human FcγRI (CD64) extracellular domain (human) (UniProt P12314); assay: SPR, antibody captured on Protein A, receptor ECD as analyte, 25 °C
Sequence of human FcγRI (CD64) extracellular domain (human) (P12314 16-292): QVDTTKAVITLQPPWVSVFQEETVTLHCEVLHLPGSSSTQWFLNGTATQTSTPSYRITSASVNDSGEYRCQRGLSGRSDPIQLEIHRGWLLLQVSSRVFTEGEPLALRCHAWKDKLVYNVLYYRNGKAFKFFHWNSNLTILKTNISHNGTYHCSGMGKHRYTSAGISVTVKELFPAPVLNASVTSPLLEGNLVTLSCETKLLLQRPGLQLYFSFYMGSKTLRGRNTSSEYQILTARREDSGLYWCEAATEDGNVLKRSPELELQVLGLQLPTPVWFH

[6] = target: human FcγRIIIA_158V (CD16a) extracellular domain (human) (UniProt P08637); assay: SPR, antibody captured on Protein A, steady state, 25 °C
Sequence of human FcγRIIIA_158V (CD16a) extracellular domain (human) (P08637 17-208 F176V): as the sequence (P08637 17-208) above, with F160V counted along it

Sequence of human FcγRIIA_131R (CD32a) extracellular domain (human) (P12318 34-217 H167R): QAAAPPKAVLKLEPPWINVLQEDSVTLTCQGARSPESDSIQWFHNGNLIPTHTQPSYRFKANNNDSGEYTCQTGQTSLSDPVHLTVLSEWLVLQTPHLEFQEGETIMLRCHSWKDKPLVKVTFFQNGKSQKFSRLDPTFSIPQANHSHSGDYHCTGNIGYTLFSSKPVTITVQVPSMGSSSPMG
Sequence of human FcγRIIA_131H (CD32a) extracellular domain (human) (P12318 34-217): as the sequence (P12318 34-217 H167R) above, with R134H counted along it
Sequence of human FcγRIIb (CD32b) extracellular domain (human) (P31994 43-217): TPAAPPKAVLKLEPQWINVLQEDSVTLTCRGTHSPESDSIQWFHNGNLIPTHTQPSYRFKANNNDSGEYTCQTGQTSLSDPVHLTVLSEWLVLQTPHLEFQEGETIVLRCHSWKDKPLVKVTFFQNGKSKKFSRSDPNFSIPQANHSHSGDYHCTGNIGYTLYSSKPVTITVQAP

Substance: Hu IgG1 (antibody)
- Kd [1]: 3.11 µM
- Kd [2]: 0.74 µM
- Kd [3]: 0.68 µM
- Kd [4]: 1.29 µM
- Kd [5]: 52.1 pM

Substance: Hu IgG4 SP (antibody)
- Kd [1]: 2.78 µM
- Kd [2]: 2.31 µM
- Kd [6]: 7.35 µM
- Kd [3]: 5.31 µM
- Kd [5]: 419 pM
